# Test results published in patent publication US20150232562A1 (Ablynx, published 2015).
# Target: T1, recombinant human ErbB2/Fc chimera (human, UniProt P04626 23-652)
# T1 construct: bought from R&D Systems; also called rhErbB2-Fc; rhErb2-Fc; Fc part of the bought chimera not given; not described
# Assay: ELISA, coated ErbB2/Fc
row,binding result,Binder
1,binds,"27D3 (VHH, C-term myc-His6 tag) VHH: EVQLMESGGGLVQPGGSLRLSCAASGLGIAFSRRTMAWYRQAPGKQRDWVATIAGDGSTVYADSMKGRFTISRDNAENTVYLQMNSLKPEDTAVYYCWDVNRDYWGQGTQVTVSS"
2,binds,"17F7 (VHH, C-term myc-His6 tag) VHH: EVQLVESGGGLVQAGGSLRLSCVASGIAQSIRVMAWYRQPPGKQRDWVGTISSDGTANYADSVKGRFTISRDNAKKTMYLQMNSLKPDDTAVYYCRDVNRDYWGQGTQVTVSS"
3,binds,"15D12 (VHH, C-term myc-His6 tag) VHH: EVQLVESGGGLVQAGESLRLSCATSGITFKRYVMGWYRQGPGKQRELVATVNDGGTTSYADSVKGRFAISRDNAKNTAYLQMNSLKAEDTAVYYCNAVWKLPRFVDNDYWGQGTQVTVSS"
4,binds,"15G4 (VHH, C-term myc-His6 tag) VHH: EVQLVESGGGLVQAGGSLRLSCVASGIPFRSRTMAWYRQAPGKTRDWVATIGTHGTPLYADSVKGRFTVSRDNAKNTLYLQMNSLKPEDTAVYYCWDVNGDYWGQGTQVTVSS"
5,binds,"29E9 (VHH, C-term myc-His6 tag) VHH: EVQLVESGGGLVQPGGSLRLSCVASRIPASIRTMAWYRQTPGNQRDWLATIGSSGTPAYADSVKGRFTVSRDNAKNTVYLQMNSLKPEDTAVYYCRDVNGDYWGQGTQVTVSS"
6,binds,"15D8 (VHH, C-term myc-His6 tag) VHH: EVQLVESGGGLVQPGGSLKLSCVASTIPASIRTMAWYRQTPGNQRDWLATIGSSGTPAYADSVKGRFTVSRDNAKNTVYLQMNSLKPEDTAVYYCRDVNGDYWGQGTQVTVSS"
7,binds,"13A9 (VHH, C-term myc-His6 tag) VHH: EVQLVESGGGLVQAGGSLRLSCVASRIPASIRTMAWYRQAPGKQRDWVATIGTGGTPAYADSFKGRFTVSRDNANHTVYLQMNSLKPEDTAVYYCRDVNGDYWGQGTQVTVSS"
8,binds,"15C2 (VHH, C-term myc-His6 tag) VHH: EVQLVESGGGLVQAGGSLRLSCVTSRRPASTRTMAWYRQAQGKQRDWVATISSHGLPVYADSVKGRFTVSRDNANNTVYLQMNTLKPEDTAVYYCRDVNADYWGQGTQVTVSS"
9,binds,"17C5 (VHH, C-term myc-His6 tag) VHH: EVQLVESGGGLVQAGGSLRLSCVTSRRPASTRTMAWYRQAPGKQRDWVATISSHGLPVYADSVKGRFTVSRDNANNTVYLQMNTLKPEDTAVYYCRDVNADYWGQGTPVTVSS"
10,binds,"17B6 (VHH, C-term myc-His6 tag) VHH: EVQLVESGGGLVQPGGSLRLSCAASRIPFSTRTMAWYRQAPGKQRDWVATIGTSGPPRYADSVKGRFTVSRDNAKNTVYLQMNSLKAEDTAVYYCWDVNADYWGQGTQVTVSS"

# Continued, binder first:
row,Binder,binding result
1,"17C3 (VHH, C-term myc-His6 tag) VHH: EVQLVESGGGLVQAGGSLRLSCAANGLTFRRYDMGWYRQAPGQQREWVAAISGAGDINYADSVKGRFTMARDNANHTVHLQMNSLKPEDTAVYYCNANWKMLLGVENDYWGQGTQVTVSS",binds
2,"13D7 (VHH, C-term myc-His6 tag) VHH: EVQLVESGGGLVQAGGSLRLSCAANGLTFRRYDMGWYRQAPGQQREWVAAISGAGDINYADSVKGRFTMARDNANHTVHLQMNSLKPEDTAVYYCNANWKMLLGVENDYWGQGTQVTVSS",binds
3,"13A4 (VHH, C-term myc-His6 tag) VHH: EVQLVESGGGLVQAGGSLRLSCVASKMTFMRYTMGWYRQAPGKQRDLVASIDSSGGTNYADSVKGRFTISRDNAKNTVYLEMNSLKPEDTGVYYCNGRWDIVGAIWWGQGTQVTVSS",binds
4,"27H4 (VHH, C-term myc-His6 tag) VHH: EVQLVESGGGLVQAGGSLRLSCVASKMTFMRYTMGWYRQAPGKQRDLVASIDASGGTNYADSVKGRFTISRDNAKNTVYLEMNSLKPEDTGVYYCNGRWDIVGAIWWGQGTQVTVSS",binds
5,"27A5 (VHH, C-term myc-His6 tag) VHH: EVQLVESGGGLVQAGGSLNLSCVASGIPFSTRTMAWYRQPPGNERDWVATIRSGAPVYADSVKGRFTVSRDNAKNTLYLQMNSLEPEDTATYYCWDVNGDIWGQGTPVTVSS",binds
6,"46D3 (VHH, C-term myc-His6 tag) VHH: KVQLVESGGGLVQAGGSLRLSCAASGRTFTEYSMGWFRQAPGKEREFVATISWNYGYTYYSDSVKGRFTVSRDIAENTVYLQMNTLKSEDTAVYYCAAKIGWLSIRGDEYEYWGQGTQVTVSS",binds
7,"14A1 (VHH, C-term myc-His6 tag) VHH: EVQLVESGGGSVQAGGSLRLSCAASERTFSSYGMGWFRQAPGKEREFVATINWSGVTAYADSVKGRFTISRDNAKKTVYLQMNSLKPEDTAVYYCAAEPYGSGSSLMSEYDYWGHGTQVTVSS",binds
8,"14B4 (VHH, C-term myc-His6 tag) VHH: EVQLVESGGGLVQAGGSLRLSCAVSSRAFSSYGMGWFRQAPGKDREFVATINWSGVTAYADSIKGRFTISRDNAKETVYLQMNSLKPEDTGVYYCAAETYGSGSSLMSEYDYWGQGTQVTVSS",binds
9,"14C11 (VHH, C-term myc-His6 tag) VHH: EVQLVESGGGLVQAGGSLRLSCAVNSRTFSSYGMGWFRQAPGKEREFVATINWSGATAYADSIKGRFTISRDNAKETVYLQMNSLKPDDTGVYYCAAETYGSGSSLMSEYDYWGQGTQVTVSS",binds
10,"14C1 (VHH, C-term myc-His6 tag) VHH: EVQLVESGGGSVQAGGSLRLSCAASGSTFSSYGMGWFRQAPGKERAFVATINWSGVTAYADSVKGRFTISRDNAKKTVYLQMNSLKPEDTAVYYCATETYGSGSSLMNEYDYWGQGTQVTVSS",binds
11,"14B3 (VHH, C-term myc-His6 tag) VHH: EVQLVESGGGLVQPGGSLTLSCVASEGTFSSYGMGWFRQAPGKERAFVATINWSGVNAYADSVKGRFTISRDNAKKTAYLQMNSLKPEDTAVYYCAAETYGSGSSLMNEYDYWGQGTQVTVSS",binds
12,"14B10 (VHH, C-term myc-His6 tag) VHH: EVQLVESGGGLVQAGGSLRLSCAVNSRTFSSYGMGWFRQAPGKEREFVATINWSGVTAYADSIKGRFTISRDNAKETVYLQMNSLKPDDTGVYYCAAETYGSGSSLMSEYDYWGQGTQVTVSS",binds
13,"14A2 (VHH, C-term myc-His6 tag) VHH: EVQLVESGGGLVQAGGSLRLSCAASERTFSSYGMGWFRQAPGKEREFVATINWSGVTAYADSVKGRFTISRDNAKKTVYLQMNSLKPEDTAVYYCAAEPYGSGSSLISEYDYWGHGTQVTVSS",binds
14,"14B11 (VHH, C-term myc-His6 tag) VHH: EVQLVESGGGLVQAGGSLRLSCAASGSTFSSYGMGWFRQVPGKEREFVATINWSGVTAYADSVKGRFTISRDNAKKTVYLQMNSLKPEDTARYYCGVETYGSGSSLMTEYDYWGQGTQVTVSS",binds
15,"14A12 (VHH, C-term myc-His6 tag) VHH: EVQLVKSGGGLVQAGGSLRLSCAASERTFSSYGMGWFRQAPGKEREFVATINWSGVTAYADSVKGRFTISRDNAKKTVYLQMNSLKPEDTAVYYCAAEPYGSGSSLISEYDYWGHGTQVTVSS",binds
16,"14C6 (VHH, C-term myc-His6 tag) VHH: EVQLVESGGGSVQAGGSLRLSCVASEGTFSSYGMGWFRQAPGKERAFVATINWSGVTAYADSVKGRFTISRDNAKKTVYLQMNSLKPEDTAVYYCATDTYGSGSSLMNEYDYWGQGTQVTVSS",binds
17,"14A4 (VHH, C-term myc-His6 tag) VHH: EVQLVESGGGSVQAGSSLTLSCVASEGTFSSYGMGWFRQAPGKERAFVATINWSGVNAYADSVKGRFTISRDNAKKTAYLQMNSLKPEDTAVYYCAAETYGSGSSLMNEYDYWGQGTQVTVSS",binds
18,"17C2 (VHH, C-term myc-His6 tag) VHH: EVQLVESGGGLVQPGGSLRLSCAASGFAFSSYAMSWVRQAPGKGLEWVSAVDSGGGRTDYAHSVKGRFTISRDNAKNTLYLQMSSLKPEDTALYYCTKHVSDSDYTEYDYWGQGTQVTVSS",binds
19,"13A8 (VHH, C-term myc-His6 tag) VHH: EVQLVESGGGLVQPGGSLRLSCAASGLGIAFSRRTMAWYRQAPGKQRDWVATIAGDGSTVYADSMKGRFTISRDNAENTVYLQMNSLKPEDTAVYYCWDVNRDYWGQGTQVTVSS",binds
20,"17F5 (VHH, C-term myc-His6 tag) VHH: EVQLVESGGGLVQPGGSLRLSCAASGLGIAFSRRTMAWYRQAPGKQRDWVATIAGDGSTVYADSMKGRFTISRDNAKNTVYLQVNSLKPEDTAVYYCWDTNGDYWGQGTQVTVSS",binds
21,"17G5 (VHH, C-term myc-His6 tag) VHH: EVQLVESGGGLVQPGGSLRLSCAASGIGIAFSSRTMAWYRQAPGKQRDWVATIGSGGTTNYADSVKGRFTISRDNAKNTVYLQMNSLKPEDTAVYYCRDINRDYWGQGTQVTVSS",binds
22,"15A4 (VHH, C-term myc-His6 tag) VHH: EVQLVESGGGLVQPGGSLRLSCAASGLGIAFSRRTMAWYRQAPGKQRDWVATIAGDGSTVYADSMKGRFTISRDNAKNTVYLQINSLKPEDTAVYYCWDVNRDYWGQGTQVTVSS",binds
23,"27G5 (VHH, C-term myc-His6 tag) VHH: EVQLVESGGGLVQPGGSLRLSCVASRIPASIRTMAWYRQTPGNQRDWLATIGSSGTPAYADSVKGRFTVSRDNAKNTVYLQMNSLKPEDTAVYYCRDVNGDYWGQGTQVTVSS",binds
24,"15A6 (VHH, C-term myc-His6 tag) VHH: EVQLVESGGGLVQAGGSLRLSCVTSRRPASTRTMAWYRQAPGKQRDWVATISSHGLPVYADSVKGRFTVSRDNANNTVYLQMNTLKPEDTAVYYCRDVNADYWGQGTQVTVSS",binds
